Measured values: patent US20120094899A1 (Takeda / Millennium, published 2012)
Non-standard residues stand in square brackets, D forms with d. No end group written: not given here. *: point of attachment. Acetyl(2-(piperazin-1-yl)) = O=C(CN1CCNCC1)*; PEG 20 kDa = methoxypolyethylene glycol 20k; 2Nal = N[C@@H](Cc1ccc2ccccc2c1)C(=O)O; Arg(Me) = CNC(=N)NCCC[C@H](N)C(=O)O; NMeY = CN[C@@H](Cc1ccc(O)cc1)C(=O)O; NMeR = CN[C@@H](CCCNC(=N)N)C(=O)O; Cha = N[C@@H](CC1CCCCC1)C(=O)O; NMeL = CN[C@@H](CC(C)C)C(=O)O; NMeA = CN[C@@H](C)C(=O)O; βAla = NCCC(=O)O

T1: Human FM3 (human, UniProt Q9HB89 1-426)
T1 construct: whole, on cells; Assayed as the membrane fraction of FM3-expressing CHO cells (1.2 mg/mL protein); also called NMUR1; FM3 receptor
T1 sequence (looked up): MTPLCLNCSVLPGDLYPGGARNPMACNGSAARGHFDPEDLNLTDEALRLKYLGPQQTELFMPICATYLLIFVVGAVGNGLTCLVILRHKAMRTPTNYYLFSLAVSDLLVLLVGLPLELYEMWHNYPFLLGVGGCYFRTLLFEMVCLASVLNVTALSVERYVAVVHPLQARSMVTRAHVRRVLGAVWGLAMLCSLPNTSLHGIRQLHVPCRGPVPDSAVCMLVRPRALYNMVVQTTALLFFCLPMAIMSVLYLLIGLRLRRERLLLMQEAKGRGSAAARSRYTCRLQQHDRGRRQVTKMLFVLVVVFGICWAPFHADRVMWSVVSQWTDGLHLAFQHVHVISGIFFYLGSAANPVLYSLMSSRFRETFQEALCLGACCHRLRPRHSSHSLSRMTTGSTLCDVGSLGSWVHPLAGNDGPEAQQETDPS

T2: Human FM3 (human), Q9HB89
T2 chain: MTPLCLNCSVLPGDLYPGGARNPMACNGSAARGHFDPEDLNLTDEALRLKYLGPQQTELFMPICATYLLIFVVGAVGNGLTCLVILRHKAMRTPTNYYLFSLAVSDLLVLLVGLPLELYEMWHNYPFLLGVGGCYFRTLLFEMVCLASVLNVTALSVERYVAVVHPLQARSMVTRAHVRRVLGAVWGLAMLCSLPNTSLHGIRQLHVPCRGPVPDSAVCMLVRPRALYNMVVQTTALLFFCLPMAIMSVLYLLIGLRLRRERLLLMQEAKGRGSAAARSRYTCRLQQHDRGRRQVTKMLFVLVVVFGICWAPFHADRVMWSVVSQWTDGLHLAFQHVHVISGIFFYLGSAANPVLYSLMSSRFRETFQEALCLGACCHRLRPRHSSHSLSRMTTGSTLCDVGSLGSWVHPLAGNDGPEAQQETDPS


What was measured:
Human FM3 = target: T1, Human FM3; assay: displacement of 125I-NMU8 from human FM3 CHO membrane fraction; IC50 relative to NMU-8;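 further: binding reaction run for 70 min at 25 °C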
Protocol: (§1) 15 mL of homogenized buffer (10 mM NaHCO₃ (pH 7.4), 5 mM EDTA, protease inhibitor=0.5 mM PMSF, 10 μg/mL Pepstatin A, 20 μg/mL Leupeptin, and 4 μg/mL E-64) was added to the obtained cell pellets, the cellular membrane was disrupted using a polytron homogenizer (Kinematica GmbH), centrifugation was conducted for 10 minutes at 1,000 g at 4° C., and the supernatant was collected. This process was further repeated twice, and ultracentrifugation was conducted for 60 minutes at 30,000 rpm at 4° C. Thereafter, 8 mL of homogenized buffer was added to the pellets and suspended homogeneously to prepare a membrane fraction. The protein concentration of the FM3-expressing CHO cellular membrane fraction was 1.2 mg/mL, and the protein concentration of the TGR1-expressing CHO cellular membrane fraction was 1.1 mg/mL.
(§2) Specifically, each of the NMU derivatives and PEG conjugates was dissolved in DMSO so as to prepare 2 μL of each dilution series of the NMU derivatives and PEG conjugates. […] The resulting product was thoroughly mixed, and then a reaction was carried out at 25° C. for 70 minutes.

human TGR1 = target: T3, human TGR1 (human, UniProt Q9GZQ4 1-415); assay: displacement of 125I-NMU8 from human TGR1 CHO membrane fraction; IC50 relative to NMU-8;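 further: competitive binding on TGR1-expressing CHO cell membranes, with compounds tested as DMSO dilution series and incubated for 70 min at 25 °C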
T3 construct: whole, on cells; Assayed as the membrane fraction of TGR1-expressing CHO cells (1.1 mg/mL protein); also called NMUR2; TGR1 receptor
T3 sequence (Q9GZQ4 whole entry): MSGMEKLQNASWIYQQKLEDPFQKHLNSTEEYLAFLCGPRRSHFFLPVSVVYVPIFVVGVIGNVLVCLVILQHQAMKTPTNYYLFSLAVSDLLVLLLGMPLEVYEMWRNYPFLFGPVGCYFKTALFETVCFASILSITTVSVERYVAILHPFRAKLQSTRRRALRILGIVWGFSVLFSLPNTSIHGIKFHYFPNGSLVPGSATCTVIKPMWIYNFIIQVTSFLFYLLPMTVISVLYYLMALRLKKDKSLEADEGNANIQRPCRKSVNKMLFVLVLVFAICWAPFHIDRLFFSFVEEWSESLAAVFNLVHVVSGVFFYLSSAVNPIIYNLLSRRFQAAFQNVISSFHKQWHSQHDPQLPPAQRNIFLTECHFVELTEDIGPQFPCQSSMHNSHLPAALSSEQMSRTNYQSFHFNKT
Protocol: as §1, §2

[1] = target: T2, Human FM3 (human), Q9HB89; assay: displacement of 125I-NMU8 from human FM3 CHO membrane fraction; IC50 relative to NMU-8; conditions: remark: other sources report otherwise

| Binder | IC50 ratio (Human FM3) | IC50 ratio (human TGR1) | IC50 ratio (ratio to NMU-8 (=1)) [1] |
| --- | --- | --- | --- |
| {PEG 20 kDa-βAla}-YWLFR[NMeA]RN-NH2 [PEG20k-NH-β-Ala0,Trp2,NMeAla6-NMU-8 (Compound Q)] | 1600 ratio to NMU-8 (=1) | 47 ratio to NMU-8 (=1) |  |
| {Acetyl(2-(piperazin-1-yl))}-YWLFRARN-NH2 (SMILES CC(C)C[C@H](NC(=O)[C@H](Cc1c[nH]c2ccccc12)NC(=O)[C@H](Cc1ccc(O)cc1)NC(=O)CN1CCNCC1)C(=O)N[C@@H](Cc1ccccc1)C(=O)N[C@@H](CCCNC(=N)N)C(=O)N[C@@H](C)C(=O)N[C@@H](CCCNC(=N)N)C(=O)N[C@@H](CC(N)=O)C(N)=O, also called 2-(piperazin-1-yl)acetyl-[Trp2,Ala6]-NMU8) [NpipAc0,Trp2,Ala6-NMU-8 (Compound 20)] | 900 ratio to NMU-8 (=1) | 1.9 ratio to NMU-8 (=1) |  |
| {mPEG 20 kDa-βAla}-[NMeY]F[NMeL]F[NMeR]PRN-NH2 [PEG20k-NH-β-Ala0,NMeTyr1,NMeLeu3,NMeArg5-NMU-8 (Compound P)] | 83 ratio to NMU-8 (=1) | 240 ratio to NMU-8 (=1) |  |
| [βAla]YF[Cha]FRPRN-NH2 (N-terminus assumed; SMILES N=C(N)NCCC[C@H](NC(=O)[C@@H]1CCCN1C(=O)[C@H](CCCNC(=N)N)NC(=O)[C@H](Cc1ccccc1)NC(=O)[C@H](CC1CCCCC1)NC(=O)[C@H](Cc1ccccc1)NC(=O)[C@H](Cc1ccc(O)cc1)NC(=O)CCN)C(=O)N[C@@H](CC(N)=O)C(N)=O, X stands for Cha) [β-Ala0,Cha3-NMU-8 (Compound 6)] | 0.55 ratio to NMU-8 (=1) | 9.9 ratio to NMU-8 (=1) |  |
| {mPEG 20 kDa-βAla}-YF[NMeL]FRP[NMeR]N-NH2 [PEG20k-NH-β-Ala0,NMeLeu3,NMeArg7-NMU-8 (Compound O)] | 75 ratio to NMU-8 (=1) | 170 ratio to NMU-8 (=1) |  |
| {mPEG 30 kDa-βAla}-YFLFRP[Arg(Me)]N-NH2 [PEG30k-NH-β-Ala0,Arg(Me)7-NMU-8 (Compound N)] | 290 ratio to NMU-8 (=1) | 63 ratio to NMU-8 (=1) |  |
| {mPEG 30 kDa-βAla}-YFLF[NMeR]PRN-NH2 [PEG30k-NH-β-Ala0,NMeArg5-NMU-8 (Compound M)] | 9 ratio to NMU-8 (=1) | 29 ratio to NMU-8 (=1) |  |
| {mPEG 30 kDa-βAla}-YF[Cha]FRPRN-NH2 (X stands for Cha; also called PEG-NH-β-Ala0,Cha3-NMU-8) [PEG30k-NH-β-Ala0,Cha3-NMU-8 (Compound F)] | 1.3 ratio to NMU-8 (=1) | 11 ratio to NMU-8 (=1) |  |
| {mPEG 20 kDa-Acetyl(2-(piperazin-1-yl))}-Y[2Nal]LFR[NMeA]RN-NH2 (X stands for Nal(2); also called PEG20k-NpipAc-Nal(2)2,NMeAla6-NMU8) [PEG20k-NpipAc0,Nal(2)2,NMeAla6-NMU-8 (Compound V)] | 10000 ratio to NMU-8 (=1) | 27 ratio to NMU-8 (=1) |  |
| [βAla]PFLFRPRN-NH2 (N-terminus assumed; SMILES CC(C)C[C@H](NC(=O)[C@H](Cc1ccccc1)NC(=O)[C@@H]1CCCN1C(=O)CCN)C(=O)N[C@@H](Cc1ccccc1)C(=O)N[C@@H](CCCNC(=N)N)C(=O)N1CCC[C@H]1C(=O)N[C@@H](CCCNC(=N)N)C(=O)N[C@@H](CC(N)=O)C(N)=O) [β-Ala0,Pro1-NMU-8 (Compound 8)] | 0.59 ratio to NMU-8 (=1) | 3.8 ratio to NMU-8 (=1) |  |
| [βAla]YYLFRPRN-NH2 (N-terminus assumed; SMILES CC(C)C[C@H](NC(=O)[C@H](Cc1ccc(O)cc1)NC(=O)[C@H](Cc1ccc(O)cc1)NC(=O)CCN)C(=O)N[C@@H](Cc1ccccc1)C(=O)N[C@@H](CCCNC(=N)N)C(=O)N1CCC[C@H]1C(=O)N[C@@H](CCCNC(=N)N)C(=O)N[C@@H](CC(N)=O)C(N)=O, also called β-Ala0,Try2-NMU-8) [β-Ala0,Tyr2-NMU-8 (Compound 5)] | 0.44 ratio to NMU-8 (=1) | 0.17 ratio to NMU-8 (=1) |  |
| [βAla]YFVFRPRN-NH2 (N-terminus assumed; SMILES CC(C)[C@H](NC(=O)[C@H](Cc1ccccc1)NC(=O)[C@H](Cc1ccc(O)cc1)NC(=O)CCN)C(=O)N[C@@H](Cc1ccccc1)C(=O)N[C@@H](CCCNC(=N)N)C(=O)N1CCC[C@H]1C(=O)N[C@@H](CCCNC(=N)N)C(=O)N[C@@H](CC(N)=O)C(N)=O) [β-Ala0,Val3-NMU-8 (Compound 4)] | 0.43 ratio to NMU-8 (=1) | 0.37 ratio to NMU-8 (=1) |  |
| [βAla]YF[NMeL]FRP[NMeR]N-NH2 (N-terminus assumed; SMILES CC(C)C[C@@H](C(=O)N[C@@H](Cc1ccccc1)C(=O)N[C@@H](CCCNC(=N)N)C(=O)N1CCC[C@H]1C(=O)N(C)[C@@H](CCCNC(=N)N)C(=O)N[C@@H](CC(N)=O)C(N)=O)N(C)C(=O)[C@H](Cc1ccccc1)NC(=O)[C@H](Cc1ccc(O)cc1)NC(=O)CCN) [β-Ala0,NMeLeu3,NMeArg7-NMU-8 (Compound 15)] | 8.6 ratio to NMU-8 (=1) | 19 ratio to NMU-8 (=1) |  |
| [βAla]YFLFRP[Arg(Me)]N-NH2 (N-terminus assumed; SMILES CNC(=N)NCCC[C@H](NC(=O)[C@@H]1CCCN1C(=O)[C@H](CCCNC(=N)N)NC(=O)[C@H](Cc1ccccc1)NC(=O)[C@H](CC(C)C)NC(=O)[C@H](Cc1ccccc1)NC(=O)[C@H](Cc1ccc(O)cc1)NC(=O)CCN)C(=O)N[C@@H](CC(N)=O)C(N)=O) [β-Ala0,Arg(Me)7-NMU-8 (Compound 14)] | 6.3 ratio to NMU-8 (=1) | 3.6 ratio to NMU-8 (=1) |  |
| {Acetyl(2-(piperazin-1-yl))}-FWLFRARN-NH2 (SMILES CC(C)C[C@H](NC(=O)[C@H](Cc1c[nH]c2ccccc12)NC(=O)[C@H](Cc1ccccc1)NC(=O)CN1CCNCC1)C(=O)N[C@@H](Cc1ccccc1)C(=O)N[C@@H](CCCNC(=N)N)C(=O)N[C@@H](C)C(=O)N[C@@H](CCCNC(=N)N)C(=O)N[C@@H](CC(N)=O)C(N)=O, also called 2-(piperazin-1-yl)acetyl-[Phe1,Trp2,Ala6]-NMU-8) [NpipAc0,Phe1,Trp2,Ala6-NMU-8 (Compound 11)] |  | 0.19 ratio to NMU-8 (=1) | 280 |
| {PEG 20 kDa-Acetyl(2-(piperazin-1-yl))}-FWLFRARN-NH2 (also called PEG20k-NPipAc-Phe1, Trp2,Ala6-NMU-8) [PEG20k-NpipAc0,Phe1,Trp2,Ala6-NMU-8 (Compound K)] |  | 34 ratio to NMU-8 (=1) | 11000 |
| {Acetyl(2-(piperazin-1-yl))}-Y[2Nal]LFR[NMeA]RN-NH2 (SMILES CC(C)C[C@H](NC(=O)[C@H](Cc1ccc2ccccc2c1)NC(=O)[C@H](Cc1ccc(O)cc1)NC(=O)CN1CCNCC1)C(=O)N[C@@H](Cc1ccccc1)C(=O)N[C@@H](CCCNC(=N)N)C(=O)N(C)[C@@H](C)C(=O)N[C@@H](CCCNC(=N)N)C(=O)N[C@@H](CC(N)=O)C(N)=O, X stands for Nal(2); also called 2-(piperazin-1-yl)acetyl-[Nal(2)2,NMeAla6]-NMU8) [NpipAc0,Nal(2)2,NMeAla6-NMU-8 (Compound 22)] | 99 ratio to NMU-8 (=1) | 1.7 ratio to NMU-8 (=1) |  |
